Data published in the DeepSol protein solubility set.

Assay: soluble on expression in E. coli; label from the status in PepcDB or PDB records

Row | Sequence | soluble on expression in E. coli
1 | MSLKKTTWFAGRFPGYVSPLSSVALSVLAALCPLTSRGESYFNPAFLSADTASVADLSRFEKGNHQPPGIYRVDIWRNDEFVATQDIRFEAGAVGTGDKSGGLMPCFTPEWIKRLGVNTAAFPVSDKGVDTTCIHLPEKIPGAEVAFDFASMRLNISLPQASLLNSARGYIPPEEWDEGIPAALINYSFTGSRGTDSDSYFLSLLSGLNYGPWRLRNNGAWNYSKGDGYHSQRWNNIGTWVQRAIIPLKSELVMGDSNTGNDVFDSFGFRGARLYSSDNMYPDSLQGYAPTVRGIARTAAKLTIRQNGYVIYQSYVSPGAFAITDLNPTSSSGDLEVTVDEKDGSQQRYTVPYSTVPLLQREARVKYDLVAGDFRSGNSQQSSPFFFQGTVIAGLPAGLTAYGGTQLADRYRAVVVGAGRNLGDWGAVSVDVTHARSQLADDSTHQGQSLRFLYAKSLNNYGTNFQLLGYRYSTRGFYTLDDVAYRSMEGYDYEYDSDGRRHKVPVAQSYHNLRYSKKGRFQVNISQNLGDYGSLYLSGSQQNYWNTADTNTWYQLGYASGWQGISYSLSWSWSESVGSSGADRILAFNMSVPFSVLTGRRYARDTILDRTYATFNANRNRDGDNSWQTGVGGTLLEGRNLSYSVTQGRSSSNGYSGSASASWQATYGTLGVGYNYDRDQHDYNWQLSGGVVGHADGITFSQPLGDTNVLIKAPGAKGVRIENQTGVKTDWRGYAVMPYATVYRYNRVALDTNTMDNHTDVENNVSSVVPTEGALVRAAFDTRIGVRAIITARLGGRPLPFGAIVRETASGITSMVGDDGQIYLSGLPLKGELFIQWGEGKNARCIAPYALAEDSLKQAITIASATCIRPASEGGSHHHHHH | soluble
2 | MPDRPQHPTASRQSSMVSWNHGAAGWLHCVQCGSATNPTACLDWLPPIHARSGPMYAEHDVVVLTRDVPDKSLIAGDVGAVVGRYAAGGYEVDFTAANGCTVAVVTLAGDDIRPRRRREIPHVREVA | not soluble
3 | MCMTNSMSDALKTLEVFRPEVEEIDEREVKLSVAPDRVIAVLETLKSLGYSHLSLMTCIDWIEDSQFELVYILFSWKDGGKFIVTTRIDRNNPQFVTVKEIWPVARFYEREIHEFFGVKFSGNEDMKPLFLELWDDKPPLRKDFDPLEYSRRKFPGREYQKDVIDEAKKIFRGEING | soluble
4 | MMNTDNRLLTRESSEHIREFFSTVERLSVSMERLFAGRSPAMAGENFYTDRELAEKLKVSRRSLQQYRDSGLLAFTRLGGKILYRSSDIEKLLDGCYREARTRPEEL | not soluble
5 | MGSDKIHHHHHHMAAKKKSASSRKLNLGCGRDIREGWINLDSMALPGVDVVADLSLCATTPLPFEDSSIDEFLLSHLIEHIPDPLPLMQELWRIAKPGAKMQIRVPHGAHDDAWTNPTHVKPYFARSFGYFSQPWYWRADYGYRGDWQPELVTYSVPRRRFAGQMPAQILEQIDALRNVVQEMIVDLVAVKPLRQPKKDLMQAANIKIALME | not soluble
6 | GPGSMDVYRQAAEIVGIVREGNGTAKALCLRKDMQKKKQTYAVVCETLRHYELLEDVLEVAEFFKYYPQANHEFAMCMAYDVVLGKGVNTHNDSTARAVSHSASYLREAYWQVRKHHVIPPRSSEKLDDEVAADTEGGARGKRRSGDSVSSSPSLQLPRYARVNTLKISVEELVSRLRRSAEVRKRARDAKDNDGDAAASSHPQQQNGDKRATRRASSRPHRPLPEFTQDPVVPHLLVFPPGTDLHAHPAVRSGQLILQDRASCLPAAVLLDAVPVEVIEGDTAGSSKGRKKAKGGTALGKEKGRGNETDAAARRPLEYVVDACAAPGNKTTQLAALGAPHIKIMATERDERRADLLSKRVASLGAADYVNVVSMDFFQLSSDDRAATEGILLDPSCSASGVMTRVDVALQHHHHHHHEQQRKGKARQADRRVSLLQGSRRGSHHEDADRNAAEEGQLDDGDREETANSGAINPAAQGNEFSMKEERVEKLARLQRKLLAHSLLSFDNCRTVVYSTCSVHEEENEEVVRQVLDDERVKARGWRLSNIMPNTWKTRGAEREGEEHPLRFTIRCDPATEATNGFYVARFDRVC | soluble
7 | MRERVCVSHCVLQRTVVCRPRTFVRERIRTQFKLVSLFITMPKSLRKRFVLVSIDDNIEQINAARKLRRYLTNNHLNHIFSSTPEEMKEYLDKLDSGTFNFRETAEEQKSVDPFSEANQPAIQMSSNQEILEKWARGTFAENSDALKLLLEPTNIEEDAVLDDHESENIVNNIPQLFMVNSMDAETPNDSIIVENGKEDQLDMAYCSLCKHEVETGRNRNTKIRKQTEHVLDAHPESEFLNVDIAKRYECVHCLRTLPVSKSPCEHISEHHDKTHVEIEFRDLWSNEQVSTFNSVMEKCFLRHLPVPRSRRIRNGNTWYLSEKASYRIVRGGEIIHISTVADKSKTDNGKESKQSRLDNSERGKPTRSMDSDYDIFDNQDETDSEEGARSESIDTGNKVSESEPGSLQSVIDLE | not soluble
8 | MGHHHHHHSHELEALSQDPRRYEEWKWFRCPTLLEVLEQFPSVALPAPLLLTQLPLLQPRYYSVSSAPSTHPGEIHLTVAVLAYRTQDGLGPLHYGVCSTWLSQLKPGDPVPCFIRGAPSFRLPPDPSLPCILVGPGTGIAPFRGFWQERLHDIESKGLQPTPMTLVFGCRCSQLDHLYRDEVQNAQQRGVFGRVLTAFSREPDNPKTYVQDILRTELAAEVHRVLCLERGHMFVCGDVTMATNVLQTVQRILATEGDMELDEAGDVIGVLRDQQRYHEDIFGLTLRTQEVTSRI | not soluble
9 | MNFEGKIALVTGASRGIGRAIAETLAARGAKVIGTATSENGAQAISDYLGANGKGLMLNVTDPASIESVLEKIRAEFGEVDILVNNAGITRDNLLMRMKDEEWNDIIETNLSSVFRLSKAVMRAMMKKRHGRIITIGSVVGTMGNGGQANYAAAKAGLIGFSKSLAREVASRGITVNVVAPGFIETDMTRALSDDQRAGILAQVPAGRLGGAQEIANAVAFLASDEAAYITGETLHVNGGMYMV | soluble
10 | EDKTITTLYVGGLGDTITETDLRNHFYQFGEIRTITVVQRQQCAFIQFATRQAAEVAAEKSFNKLIVNGRRLNVKWGR | soluble
11 | MGSDKIHHHHHHMAKSSLGQDSDSTAAVAVLKRAVELDAESRYQQALVCYQEGIDMLLQVLKGTKESSKRCVLRTKISGYMDRAENIKKYLDQEKEDGKYHKQIKIEENATGFSYESLFREYLHETVTEVWIEDPYIRQTHQLYNFLRFCEMLIKKPCKVRTIHLLTSGYEGLGNTQQSSGLEEIKQSLGSHGVVLEINYSSSIHDREIRFNNGWMIKIGRGLDYFKKPQGRFSLGYYDLDLRPCHETTVDIFHNKHTKKI | not soluble
12 | GMEQHQVWAYQTKTHSVTLNSVDIPALAADDILVQNQAIGINPVDWKFIKANPINWSNGHVPGVDGAGVIVKVGAKVDSKMLGRRVAYHTSLKRHGSFAEFTVLNTDRVMTLPDNLSFERAAALPCPLLTAWQAFEKIPLTKQREVLIVGFGAVNNLLTQMLNNAGYVVDLVSASLSQALAAKRGVRHLYREPSQVTQKYFAIFDAVNSQNAAALVPSLKANGHIICIQDRIPAPIDPAFTRTISYHEIALGALHDFGDRQDWQILMQQGEALLTLIAQGKMEIAAPDIFRFEQMIEALDHSEQTKLKTVLTLNE | soluble
13 | MSLKIHGLIDAPFTPFYENGEVNYEPIEAYCQLLVRNGLQGVFINGSSGEGYMLTEDERMKLAERWMEVAPEGFKVIVHVGSTCVKSSKRLAEHAQKIGAWGIGAMAPPFPKVGRIEELVKYCEEIACGAPALPFYFYHIPAFNGAFLSMVAFLEAVDGRIPNFAGIKYTFESLYEYNQCRLYKNGKFDMLHGQDETILPCLAMGGAQGGIGGTTNYNGKELTGIIEAWKAGDLELARERQNFAQEVINVICHYRGNIVGGKRIMKLIGLDLGKNRTPFQNMTDEEEAAMKAELEAINFFEREGHHHHHH | soluble
14 | MGSDKIHHHHHHMLNRVHLNGLRAVETVARLGSLAAAAGELNVSVSAVSQQISRTEKQLGQALFERTASGLVLTEFGAAFATRLGAGFRELAQAVALADEASQCTLVVSVAPAFASKWLLPRLSRHFDRHPNVLLRIDASVRLANLDHSDVDIAIRLGDGEWPGVRAELLLAQEVFPVCAPSIAAKLRSIEDLAQTCAITDERSMISWDSWFKAAGVEPVTFLKGARFTDPMLCLESAIAGHGVMLAWQLLTADALTDGRLVAPFGVRAESGLGYWMVTSATKAESRKVHDFKAWIREEIETTMAQFRTLDSAA | not soluble
15 | MAVPAASSIVSYGGAATSNFLTTPVTPFLAGFYNSNFVTDRINSCAPYRVDRIRKQLQDEEENGYPPADDRRRGALFCRSGTWLEMLPIENPDDGSTRVKVHGTKEESSKFSIVEFVSVAMSLVSIRGVETKNFICMDPSGKLYATPSSNYSTECVFLEEMMENYYNLYASCAYGDRFNPWYIELRRSGKPRRGPNSKKRRKASHFLVVHHDLDRLRSPVPNGNDVTDLVVASLFHQPPSHPLFRQQTVTKPPNPHRISNLRAKVEMTNQAEKQRLLEEKKRRREKKKRRREDRLRKEEQIREARRQELKSLREEELRRRYQQQQQQQASTQTRYNRPQNPANPYPTYRPLPTRSTVQSPRPAYNPYWQSPVTQAPHHNSHHHHHHHPRVSSSSDPQQRHQSQQHYLAQTVSNPNRQNVNYQRYP | not soluble
16 | MPSFLEISPDKLNRLIGTPGAPRIIDVRTDEDFALDPRLVPGSIRRDHAEVASWADSIDADAVVVVCHRGAKLSHGVAAYLRHAGIEAESLAGGFEAWAAAGPAVPEAKLSRRDAQGRTVWVTRARPKIDRIACPWLIRRFIDPNAVFLFVPAPEVVAVGERFGAAPFDIEDVFWSHRGELCTFDVMVEEFGLASEPLLRLAQIVRAADTARLDLAPEASGLLAASLGLSRMYSDDLEQLEAGMLLYDAFFRWCRDATEETHNWPAPKKRALEHHHHHH | soluble
17 | MSLRYKVGEVAARLGLTLRTLKYYEELGLVTPERTDSRYRMYSEADVQRLERIRRMRALGLSLGTIQAISTHPQESDPDGRQVLTQEALHTLESDLSSQLTVLSTRITAAEKELKDARALRRDVQRDLDYVQRRLAGAQVGELLREKDPAEGHHHHHH | not soluble
18 | MTNLTLDVNIIDFPSIPVAMLPHRCSPELLNYSVAKFIMWRKETGLSPVNQSQTFGVAWDAPATTAPEAFRFDICGSVSEPIPDNRYGVSNGELTGGRYAVARHVGELDDISHTIWGIIRHWLPASGEKMRKAPILFHYTNLAEGVTEQRLETDVYVPLA | not soluble
19 | RYIEKALKRPGNILIGTLPVGLDFPTRIVAEIVDAPSLTIEEIMRKAKYYLREGADIIDIGMESGKTNVEFLESVLPEIKEKINAPLSLDTLNPKEIEAGEKEVDLILSVDFGTVEEILPSKPVVLIPTNMKEGKFIEDPIGRAKALEKLKEKALNLGYKGLILDPILEHYPNFSRSLVAFYLYRMRNPQDILLAGVGNITEMMDADSVGLNALLASIAGELKISLLLTTEVSPKATGSVRELKRGIDMVLLGGVKDVGINLLILKEKRRKEQKIEFAKTIIRAKKKPVKLEEVYFKIYVVGTELAVTAYKGTNPVMTIIGKEPNEIIDTILEHFSISPRHAFYLGRELEKAYTGLKIRRSYIQEEELFGDFYFEK | not soluble
20 | MGSDKIHHHHHHMSSGTENDQFYSFDESDSSSIELYESHNTSEFTIHGLVFPKLISVTSQDSEFDINEDEDGVDTIYEGMLDAPLTKNNKRILCEGSVPNLSYECLTTKGIFERMLQRVDHLQPIFAIPSADILILLQHYDWNEERLLEVWTEKMDELLVELGLSTTANIKKDNDYNSHFREVEFKNDFTCIICCDKKDTETFALECGHEYCINCYRHYIKDKLHEGNIITCMDCSLALKNEDIDKVMGHPSSSKLMDSSIKSFVQKHNRNYKWCPFADCKSIVHLRDTSSLPEYTRLHYSPFVKCNSFHRFCFNCGFEVHSPADCKITTAWVKKARKESEILNWVLSHTKECPKCSVNIEKNGGCNHMVCSSCKYEFCWICEGPWAPHGKNFFQCTMYKNNEDNKSKNPQDANKTLKKYTFYYRLFNEHEVSAKLDWNLGQTLGTKVHALQERIGISWIDGQFLSESLKVLNEGRTVLKWSFAVAYYSDASHNLTKIFVDNQMLLANAVESLSELLQIKTPEVIMKRRPEFYNKAGYVENRTTALMECGRELLCKGICKAAE | not soluble
